38 molecules from PMC314469, “Protein Interaction Networks by Proteome Peptide Scanning” (PLoS Biology, 2004) can be followed below.

In test [1] the target is T1, amphyphisin SH3 (AMPH_HUMAN), P49418.
T1 chain: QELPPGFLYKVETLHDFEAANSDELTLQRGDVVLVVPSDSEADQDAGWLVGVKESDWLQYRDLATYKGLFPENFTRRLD
The test is described as follows: SPOT array.

Test [2] has as its target endophilin SH3 (SH3G2_HUMAN), Q99962. Nature of the test: SPOT array.

B1: Q9NVW8 327-340 (peptide)
chain: EKIPFERPFRRPNA
With B1, the normalised SPOT signal, Boehringer light units (BLU); mean over the file's lines of this peptide in test [1] is 948; in test [2], 123.

B2: Q9UJX9 322-335 (peptide)
chain: EGTYPRRPGSSPKV
For B2, the figures for the normalised SPOT signal, Boehringer light units (BLU); mean over the file's lines of this peptide in test [1] and in test [2] were 54.8 and 73.1, respectively.

B3: Q9NSC3 29-42 (peptide)
chain: EKGQPSRPTKSKDA
As to B3, the normalised SPOT signal, Boehringer light units (BLU); mean over the file's lines of this peptide in test [1] came out at 82.2; in test [2], 143.

B4: O00485 108-122 (peptide)
chain: ELHVPIRPPRPSSP
Turning to B4, the normalised SPOT signal, Boehringer light units (BLU); mean over the file's lines of this peptide in test [1] came out at 12300; in test [2], 3980.

B5: Q9NPN2 39-52 (peptide)
chain: AALLFLRPPRVRGH
For the molecule B5, the figures for the normalised SPOT signal, Boehringer light units (BLU); mean over the file's lines of this peptide in test [1] and in test [2] were 8020 and 82.4, respectively.

B6: Q92538 1455-1468 (peptide)
chain: EGSMLRRPRTSSQH
As to B6, the results for the normalised SPOT signal, Boehringer light units (BLU); mean over the file's lines of this peptide in test [1] and in test [2] were 115 and 443, respectively.

B7: Q9UHV6 43-56 (peptide)
chain: EHRPLKRPRPRLGP
Turning to B7, the normalised SPOT signal, Boehringer light units (BLU); mean over the file's lines of this peptide in test [1] was 22; in test [2] it was 82.

B8: Q8TEL4 107-121 (peptide)
chain: EHRPPEKPPRPPRP
Regarding B8, the normalised SPOT signal, Boehringer light units (BLU); mean over the file's lines of this peptide turned out to be 9830 in test [1] and 9880 in test [2].

B9: Q9UEG5 39-52 (peptide)
chain: EKDHIRRPMNAFMI
As for B9, the results for the normalised SPOT signal, Boehringer light units (BLU); mean over the file's lines of this peptide in test [1] and in test [2] were 30.2 and 67, respectively.

B10: P52849 60-74 (peptide)
chain: AGPGPARPPVPPRP
In the case of B10, the normalised SPOT signal, Boehringer light units (BLU); mean over the file's lines of this peptide in test [1] amounted to 5580; in test [2], 3370.

B11: P39060 984-997 (peptide)
chain: EIGFPGRPGRPGMN
With B11, the values for the normalised SPOT signal, Boehringer light units (BLU); mean over the file's lines of this peptide in test [1] and in test [2] were 139 and 108, respectively.

B12: O43196 121-134 (peptide)
chain: EHREPKRPEIIFLP
With B12, the normalised SPOT signal, Boehringer light units (BLU); mean over the file's lines of this peptide in test [1] was found to be 31.2; in test [2], 43.4.

B13: P42858 194-207 (peptide)
chain: ELAHLVRPQKSRPY
Consider B13, for which the results for the normalised SPOT signal, Boehringer light units (BLU); mean over the file's lines of this peptide in test [1] and in test [2] were 166 and 86.2, respectively.

B14: O75190 254-268 (peptide)
chain: AGLRPPKPPRPASL
Turning to B14, the normalised SPOT signal, Boehringer light units (BLU); mean over the file's lines of this peptide is 2380 in test [1] and 12300 in test [2].

B15: P18887 302-315 (peptide)
chain: EGTEPRRPRAGPEE
Consider B15, for which the normalised SPOT signal, Boehringer light units (BLU); mean over the file's lines of this peptide in test [1] was found to be 36.7; in test [2], 4.9.

B16: Q9UM03 505-519 (peptide)
chain: EMTPPPKPPRLYLP
Take B16: the values for the normalised SPOT signal, Boehringer light units (BLU); mean over the file's lines of this peptide in test [1] and in test [2] were 1820 and 601, respectively.

B17: Q9HCF0 45-58 (peptide)
chain: ELTIIERPVRRSLK
Regarding B17, the normalised SPOT signal, Boehringer light units (BLU); mean over the file's lines of this peptide in test [1] turned out to be 700; in test [2], 61.6.

B18: Q04118 252-266 (peptide)
chain: EGNKPQRPPPPRRP
Consider B18, for which the normalised SPOT signal, Boehringer light units (BLU); mean over the file's lines of this peptide in test [1] turned out to be 5630; in test [2], 18200.

B19: Q9H9V7 590-603 (peptide)
chain: EKPKLRRPSDRSNG
Turning to B19, the normalised SPOT signal, Boehringer light units (BLU); mean over the file's lines of this peptide in test [1] stood at 10.1; in test [2], 80.5.

B20: Q9Y403 100-113 (peptide)
chain: EKPILDRPTRISQP
With B20, the normalised SPOT signal, Boehringer light units (BLU); mean over the file's lines of this peptide in test [1] came out at 57.1; in test [2] it was 0.6.

B21: P22460 83-97 (peptide)
chain: ELPRPRRPPPEDEE
For the molecule B21, the figures for the normalised SPOT signal, Boehringer light units (BLU); mean over the file's lines of this peptide in test [1] and in test [2] were 40 and 36.9, respectively.

B22: Q9H2U9 25-38 (peptide)
chain: EGQQLVRPKKLPLI
B22: the normalised SPOT signal, Boehringer light units (BLU); mean over the file's lines of this peptide in test [1] is 87.3; in test [2] it was 70.

B23: Q08050 469-482 (peptide)
chain: EMPHLARPIKVESP
With B23, the normalised SPOT signal, Boehringer light units (BLU); mean over the file's lines of this peptide came to 145 in test [1] and 158 in test [2].

B24: Q93073 574-587 (peptide)
chain: EIAKLKRPTALKKV
With B24, the results for the normalised SPOT signal, Boehringer light units (BLU); mean over the file's lines of this peptide in test [1] and in test [2] were 16.3 and 85.5, respectively.

B25: Q9Y5L9 2452-2466 (peptide)
chain: EGPSPARPPRRRTS
Turning to B25, the results for the normalised SPOT signal, Boehringer light units (BLU); mean over the file's lines of this peptide in test [1] and in test [2] were 16700 and 5340, respectively.

B26: Q9Y5I4 12-25 (peptide)
chain: EHPRLRRPMPWLLL
As to B26, the results for the normalised SPOT signal, Boehringer light units (BLU); mean over the file's lines of this peptide in test [1] and in test [2] were 85.8 and 783, respectively.

B27: Q9H7I0 90-104 (peptide)
chain: EMEPPPKPPRSSSA
On to B27, for which the normalised SPOT signal, Boehringer light units (BLU); mean over the file's lines of this peptide in test [1] was determined as 4690; in test [2], 298.

B28: P78347 776-789 (peptide)
chain: EGVPFRRPSTFGIP
With B28, the normalised SPOT signal, Boehringer light units (BLU); mean over the file's lines of this peptide was determined as 31.2 in test [1] and 112 in test [2].

B29: O60504 440-454 (peptide)
chain: EIPKPIKPPTYQVL
On to B29, for which the values for the normalised SPOT signal, Boehringer light units (BLU); mean over the file's lines of this peptide in test [1] and in test [2] were 52.6 and 62.9, respectively.

B30: BAC04837 210-224 (peptide)
chain: EIMSPRKPPLFLTK
With B30, the normalised SPOT signal, Boehringer light units (BLU); mean over the file's lines of this peptide in test [1] came out at 136; in test [2], 1680.

B31: Q93062 39-52 (peptide)
chain: ELYLLFRPFKGYEG
B31: the normalised SPOT signal, Boehringer light units (BLU); mean over the file's lines of this peptide in test [1] stood at 129; in test [2], 178.

B32: Q96LQ5 87-101 (peptide)
chain: AGNLPSRPPPLSSP
For B32, the normalised SPOT signal, Boehringer light units (BLU); mean over the file's lines of this peptide in test [1] was found to be 59.7; in test [2], 1080.

B33: Q9NYR0 332-346 (peptide)
chain: EGNRPKKPPPPSAP
Turning to B33, the normalised SPOT signal, Boehringer light units (BLU); mean over the file's lines of this peptide in test [1] stood at 53.4; in test [2] it was 2130.

B34: Q15047 309-322 (peptide)
chain: ELYPISRPLKKTWE
In the case of B34, the normalised SPOT signal, Boehringer light units (BLU); mean over the file's lines of this peptide in test [1] and in test [2] was -0 throughout.

B35: Q9NSY0 103-117 (peptide)
chain: ELPRPRRPPLQWRY
As to B35, the normalised SPOT signal, Boehringer light units (BLU); mean over the file's lines of this peptide in test [1] was 1080; in test [2], 5930.

B36: Q9C0I2 974-987 (peptide)
chain: EHPEPKRPSVDSLV
B36: the normalised SPOT signal, Boehringer light units (BLU); mean over the file's lines of this peptide was determined as 50.2 in test [1] and 0 in test [2].

B37: Q9Y215 121-134 (peptide)
chain: EKGELGRPGRKGRP
Turning to B37, the normalised SPOT signal, Boehringer light units (BLU); mean over the file's lines of this peptide is 103 in test [1] and 164 in test [2].

B38: Q9NZQ6 1526-1539 (peptide)
chain: ELEQLRRPPGTAER
Consider B38, for which the normalised SPOT signal, Boehringer light units (BLU); mean over the file's lines of this peptide in test [1] was 15.8; in test [2], 126.
